One may read the Kd as the free concentration of one partner at which half of the binding sites on the other are occupied at equilibrium, for simple one-to-one binding. Lower therefore signals a tighter complex.

Holding throughout (conditions): both partners purified
The target of one assay is T1, DCAF12 (Δ1–78) (human, UniProt Q5T6F0 79-453).
T1 construct: DDB1- and CUL4-associated factor 12 (DCAF12), human, residues 79-453 (Δ1-78); also called DCAF12:79-453aa; N-terminally truncated DCAF12; source: Sf9 (baculovirus, pFBOH-MHL), purified (TALON beads, Superdex S200 26/60)
Put plainly: fluorescence polarisation; direct binding; protein titrated from 4 µM in two-fold steps against 20 nM FITC peptide; 20 mM Tris pH 7.5, 150 mM NaCl, 5% glycerol, 0.5 mM TCEP, 0.01% Triton; 45 min at room temperature.

The target in the next assay is DDB1–DCAF12 complex (human, UniProt Q5T6F0 1-453; Q5T6F0 1-453). The description is as above.
Assay [1] concerns the target T2, biotinylated DCAF12 (Δ1–78) (human, UniProt Q5T6F0 79-453, biotin).
T2 construct: DDB1- and CUL4-associated factor 12 (DCAF12), human, residues 79-453 (Δ1-78); also called DCAF12:79-453aa; DCAF12 Δ1–78 (pFBD-BirA); source: Sf9 (pFBD-BirA vector), purified (TALON beads, Superdex S200 26/60)
Put plainly: SPR; biotinylated DCAF12 (Δ1–78) immobilised (~3,200 RU) on a streptavidin chip, Biacore 8K+; peptides injected, 8-point two-fold series from 1 µM; 10 mM HEPES pH 7.4, 150 mM NaCl, 3 mM EDTA, 0.005% P20, 5% glycerol, 2% DMSO; 15 °C; 1:1 Langmuir fit. (In SPR one partner is held on a chip, and binding of the other changes the refractive index at the surface.)

Where no end group is shown, it is not given here. The star is where a group is joined. FITC = O=C1OC2(c3ccc(O)cc3Oc3cc(O)ccc32)c2ccc(NC(=S)*)cc21

B1: FITC-labeled CCT5 C-terminal degron peptide (peptide)
peptide: {FITC}-IRKPGESEE
notes: nine C-terminal residues of T-complex protein 1 subunit epsilon (CCT5); also called CCT5 peptide
As to B1, the Kd is 370 nM with DCAF12 (Δ1–78) and 80 nM with DDB1–DCAF12 complex.

B2: FITC-labeled MAGEA3 C-terminal degron peptide (peptide)
peptide: {FITC}-LHEWVLREGEE
notes: 11 C-terminal residues of melanoma-associated antigen 3 (MAGEA3); also called MAGEA3 peptide
Turning to B2, the Kd with DCAF12 (Δ1–78) was determined as 520 nM; with DDB1–DCAF12 complex it was 180 nM.

B3: unlabeled MAGEA3 C-terminal degron peptide (peptide)
peptide: LHEWVLREGEE
notes: as for B2
Regarding B3, the Kd in assay [1] came to 161 nM.

B4: unlabeled CCT5 C-terminal degron peptide (peptide)
peptide: IRKPGESEE
notes: as for B1
In assay [1], B4 displayed a Kd of 60 nM.
